Assay results reported in publication PMC10397247.

Tests used:
4H234-AA = biological target: T1, 4H234-AA; test: two-hybrid library CCmax;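 note: natural log of median RNA to DNA barcode read ratio; higher means stronger binding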
T1 chain: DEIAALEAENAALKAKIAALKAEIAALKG

4H2354-AA = biological target: T2, 4H2354-AA; test: two-hybrid library CCmax; details: mean of both orientations;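 note: natural log of median RNA to DNA barcode read ratio; higher means stronger binding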
T2 chain: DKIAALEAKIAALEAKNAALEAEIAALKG

4H2393-AA = biological target: T3, 4H2393-AA; test: two-hybrid library CCmax; details: mean of both orientations;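 note: natural log of median RNA to DNA barcode read ratio; higher means stronger binding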
T3 chain: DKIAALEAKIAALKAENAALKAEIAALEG

4H2466-AA = biological target: T4, 4H2466-AA; test: two-hybrid library CCmax; details: mean of both orientations;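 note: natural log of median RNA to DNA barcode read ratio; higher means stronger binding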
T4 chain: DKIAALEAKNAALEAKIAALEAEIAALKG

4H2505-AA = biological target: T5, 4H2505-AA; test: two-hybrid library CCmax; details: mean of both orientations;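 note: natural log of median RNA to DNA barcode read ratio; higher means stronger binding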
T5 chain: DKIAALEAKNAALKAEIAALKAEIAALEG

4H2575-AA = biological target: T6, 4H2575-AA; test: two-hybrid library CCmax; details: mean of both orientations;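 note: natural log of median RNA to DNA barcode read ratio; higher means stronger binding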
T6 chain: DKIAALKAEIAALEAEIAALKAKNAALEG

4H2617-AA = biological target: T7, 4H2617-AA; test: two-hybrid library CCmax; details: mean of both orientations
T7 chain: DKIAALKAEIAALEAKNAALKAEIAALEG

4H2642-AA = biological target: T8, 4H2642-AA; test: two-hybrid library CCmax; details: mean of both orientations
T8 chain: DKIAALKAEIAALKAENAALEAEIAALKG

4H2729-AA = biological target: T9, 4H2729-AA; test: two-hybrid library CCmax; details: mean of both orientations
T9 chain: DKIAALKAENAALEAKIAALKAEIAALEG

4H2754-AA = biological target: T10, 4H2754-AA; test: two-hybrid library CCmax; details: mean of both orientations
T10 chain: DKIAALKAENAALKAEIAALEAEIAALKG

4H2837-AA = biological target: T11, 4H2837-AA; test: two-hybrid library CCmax; details: mean of both orientations
T11 chain: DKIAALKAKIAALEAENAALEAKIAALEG

4H2883-AA = biological target: T12, 4H2883-AA; test: two-hybrid library CCmax; details: mean of both orientations
T12 chain: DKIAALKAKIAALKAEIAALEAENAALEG

4H2944-AA = biological target: T13, 4H2944-AA; test: two-hybrid library CCmax; details: mean of both orientations
T13 chain: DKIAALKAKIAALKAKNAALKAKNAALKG

4H2949-AA = biological target: T14, 4H2949-AA; test: two-hybrid library CCmax; details: mean of both orientations
T14 chain: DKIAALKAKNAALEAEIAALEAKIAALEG

4H3112-AA = biological target: T15, 4H3112-AA; test: two-hybrid library CCmax; details: mean of both orientations
T15 chain: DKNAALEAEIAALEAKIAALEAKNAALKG

4H317-AA = biological target: T16, 4H317-AA; test: two-hybrid library CCmax; details: mean of both orientations
T16 chain: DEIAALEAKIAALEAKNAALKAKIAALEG

4H3343-AA = biological target: T17, 4H3343-AA; test: two-hybrid library CCmax; details: mean of both orientations
T17 chain: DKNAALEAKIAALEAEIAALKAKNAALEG

4H335-AA = biological target: T18, 4H335-AA; test: two-hybrid library CCmax
T18 chain: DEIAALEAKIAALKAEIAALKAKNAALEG

4H342-AA = biological target: T19, 4H342-AA; test: two-hybrid library CCmax
T19 chain: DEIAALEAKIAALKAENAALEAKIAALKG

4H3427-AA = biological target: T20, 4H3427-AA; test: two-hybrid library CCmax; details: mean of both orientations
T20 chain: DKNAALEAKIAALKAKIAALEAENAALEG

4H3606-AA = biological target: T21, 4H3606-AA; test: two-hybrid library CCmax; details: mean of both orientations
T21 chain: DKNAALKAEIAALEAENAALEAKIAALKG

4H3627-AA = biological target: T22, 4H3627-AA; test: two-hybrid library CCmax; details: mean of both orientations
T22 chain: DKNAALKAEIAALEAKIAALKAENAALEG

4H3655-AA = biological target: T23, 4H3655-AA; test: two-hybrid library CCmax; details: mean of both orientations
T23 chain: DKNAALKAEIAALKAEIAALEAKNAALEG

4H3844-AA = biological target: T24, 4H3844-AA; test: two-hybrid library CCmax; details: mean of both orientations
T24 chain: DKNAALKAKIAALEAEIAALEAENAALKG

4H3921-AA = biological target: T25, 4H3921-AA; test: two-hybrid library CCmax; details: mean of both orientations
T25 chain: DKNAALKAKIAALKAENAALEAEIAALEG

4H429-AA = biological target: T26, 4H429-AA; test: two-hybrid library CCmax; details: mean of both orientations
T26 chain: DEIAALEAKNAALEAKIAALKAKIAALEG

4H454-AA = biological target: T27, 4H454-AA; test: two-hybrid library CCmax; details: mean of both orientations
T27 chain: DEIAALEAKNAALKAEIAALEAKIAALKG

4H48-AA = biological target: T28, 4H48-AA; test: two-hybrid library CCmax; details: mean of both orientations
T28 chain: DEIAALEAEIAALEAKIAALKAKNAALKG

4H566-AA = biological target: T29, 4H566-AA; test: two-hybrid library CCmax; details: mean of both orientations
T29 chain: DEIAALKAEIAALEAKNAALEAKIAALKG

4H605-AA = biological target: T30, 4H605-AA; test: two-hybrid library CCmax; details: mean of both orientations
T30 chain: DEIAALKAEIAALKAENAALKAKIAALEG

4H678-AA = biological target: T31, 4H678-AA; test: two-hybrid library CCmax; details: mean of both orientations
T31 chain: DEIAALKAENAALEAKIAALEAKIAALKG

4H717-AA = biological target: T32, 4H717-AA; test: two-hybrid library CCmax; details: mean of both orientations
T32 chain: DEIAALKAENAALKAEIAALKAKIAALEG

4H780-AA = biological target: T33, 4H780-AA; test: two-hybrid library CCmax; details: mean of both orientations
T33 chain: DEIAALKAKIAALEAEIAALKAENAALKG

4H794-AA = biological target: T34, 4H794-AA; test: two-hybrid library CCmax; details: mean of both orientations
T34 chain: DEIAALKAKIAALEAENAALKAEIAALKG

4H881-AA = biological target: T35, 4H881-AA; test: two-hybrid library CCmax; details: mean of both orientations
T35 chain: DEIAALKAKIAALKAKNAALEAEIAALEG

4H906-AA = biological target: T36, 4H906-AA; test: two-hybrid library CCmax; details: mean of both orientations
T36 chain: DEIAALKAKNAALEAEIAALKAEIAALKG

4H993-AA = biological target: T37, 4H993-AA; test: two-hybrid library CCmax; details: mean of both orientations
T37 chain: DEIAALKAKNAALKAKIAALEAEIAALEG

4H3782-bN = biological target: T38, 4H3782-bN; test: two-hybrid library CCNG1
T38 chain: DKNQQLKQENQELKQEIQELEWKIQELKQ

4H3843-bN = biological target: T39, 4H3843-bN; test: two-hybrid library CCNG1
T39 chain: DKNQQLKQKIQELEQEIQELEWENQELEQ

4H3855-bN = biological target: T40, 4H3855-bN; test: two-hybrid library CCNG1
T40 chain: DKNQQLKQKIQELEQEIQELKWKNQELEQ

4H4001-bN = biological target: T41, 4H4001-bN; test: two-hybrid library CCNG1
T41 chain: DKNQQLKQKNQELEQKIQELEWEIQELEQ

4H454-bN = biological target: T42, 4H454-bN; test: two-hybrid library CCNG1
T42 chain: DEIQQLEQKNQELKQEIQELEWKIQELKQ

4H462-bN = biological target: T43, 4H462-bN; test: two-hybrid library CCNG1
T43 chain: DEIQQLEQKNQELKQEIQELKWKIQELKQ

4H568-bN = biological target: T44, 4H568-bN; test: two-hybrid library CCNG1
T44 chain: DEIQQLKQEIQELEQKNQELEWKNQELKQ

4H607-bN = biological target: T45, 4H607-bN; test: two-hybrid library CCNG1
T45 chain: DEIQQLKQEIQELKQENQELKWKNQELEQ

4H687-bN = biological target: T46, 4H687-bN; test: two-hybrid library CCNG1
T46 chain: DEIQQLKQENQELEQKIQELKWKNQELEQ

4H717-bN = biological target: T47, 4H717-bN; test: two-hybrid library CCNG1
T47 chain: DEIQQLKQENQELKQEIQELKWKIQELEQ

4H72-bN = biological target: T48, 4H72-bN; test: two-hybrid library CCNG1
T48 chain: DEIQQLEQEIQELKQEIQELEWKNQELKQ

4H754-bN = biological target: T49, 4H754-bN; test: two-hybrid library CCNG1
T49 chain: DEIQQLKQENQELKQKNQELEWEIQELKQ

4H797-bN = biological target: T50, 4H797-bN; test: two-hybrid library CCNG1
T50 chain: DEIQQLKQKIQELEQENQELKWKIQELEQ

4H883-bN = biological target: T51, 4H883-bN; test: two-hybrid library CCNG1
T51 chain: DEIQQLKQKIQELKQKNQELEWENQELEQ

4H908-bN = biological target: T52, 4H908-bN; test: two-hybrid library CCNG1
T52 chain: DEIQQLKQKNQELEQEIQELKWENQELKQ

4H918-bN = biological target: T53, 4H918-bN; test: two-hybrid library CCNG1
T53 chain: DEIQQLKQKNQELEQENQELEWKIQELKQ

4H953-bN = biological target: T54, 4H953-bN; test: two-hybrid library CCNG1
T54 chain: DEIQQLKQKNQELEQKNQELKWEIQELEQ

4H967-bN = biological target: T55, 4H967-bN; test: two-hybrid library CCNG1
T55 chain: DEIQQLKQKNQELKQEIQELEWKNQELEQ

O9 = biological target: T56, O9; test: two-hybrid library CCNG1
T56 chain: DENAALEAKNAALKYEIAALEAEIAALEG

DEIAALEAENAALKAKIAALKAEIAALKG [4H234-AA]
interaction score (4H234-AA): 1.91
interaction score (4H2354-AA): -0.425
interaction score (4H2393-AA): 0.577
interaction score (4H2466-AA): -0.379
interaction score (4H2505-AA): 1.67
interaction score (4H2575-AA): -0.746
interaction score (4H2617-AA): -1.32
interaction score (4H2642-AA): 0.56
interaction score (4H2729-AA): 1.8
interaction score (4H2754-AA): 2.04
interaction score (4H2837-AA): -1.08
interaction score (4H2883-AA): -1.27
interaction score (4H2944-AA): -1.71
interaction score (4H2949-AA): 1.73
interaction score (4H3112-AA): -1.22
interaction score (4H317-AA): -1.11
interaction score (4H3343-AA): -0.996
interaction score (4H335-AA): -1.24
interaction score (4H342-AA): 0.11
interaction score (4H3427-AA): -1.32
interaction score (4H3606-AA): -0.346
interaction score (4H3627-AA): -0.624
interaction score (4H3655-AA): -0.983
interaction score (4H3844-AA): -1.28
interaction score (4H3921-AA): 0.388
interaction score (4H429-AA): -1.25
interaction score (4H454-AA): 1.79
interaction score (4H48-AA): -0.786
interaction score (4H566-AA): 0.581
interaction score (4H605-AA): -1.45
interaction score (4H678-AA): 1.31
interaction score (4H717-AA): 0.359
interaction score (4H780-AA): -1.42
interaction score (4H794-AA): -1.24
interaction score (4H881-AA): -1.05
interaction score (4H906-AA): 0.324
interaction score (4H993-AA): 1.77

DKNQQLKQENQELKQEIQELEWKIQELKQ [4H3782-bN]
interaction score (4H3782-bN): -1.91
interaction score (4H3843-bN): 0.479
interaction score (4H3855-bN): -1.08
interaction score (4H4001-bN): 0.0598
interaction score (4H454-bN): -0.771
interaction score (4H462-bN): 0.194
interaction score (4H568-bN): -0.456
interaction score (4H607-bN): -0.461
interaction score (4H687-bN): 0.28
interaction score (4H717-bN): -0.43
interaction score (4H72-bN): -0.393
interaction score (4H754-bN): 0.109
interaction score (4H797-bN): 0.0484
interaction score (4H883-bN): -1.27
interaction score (4H908-bN): 0.273
interaction score (4H918-bN): -0.56
interaction score (4H953-bN): -0.576
interaction score (4H967-bN): -0.314

DENAALEAKNAALKYEIAALEAEIAALEG [O9]
interaction score (O9): -2.24
